What all share (settings): remark: other sources report otherwise
The target in test [1] is T1, Native pentameric human C-reactive protein (Scripps) (human), P02741.
T1 chain: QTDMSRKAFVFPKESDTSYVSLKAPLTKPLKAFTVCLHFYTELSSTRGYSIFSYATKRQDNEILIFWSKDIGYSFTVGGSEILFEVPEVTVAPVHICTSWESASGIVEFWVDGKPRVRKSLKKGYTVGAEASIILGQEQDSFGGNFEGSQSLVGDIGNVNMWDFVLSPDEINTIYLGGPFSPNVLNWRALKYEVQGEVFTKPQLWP
As to the kind of experiment: SEC; HiLoad 16/60 Superdex 200 pg, elution buffer B (50 mM tris, 150 mM NaCl, pH 7.2), 0.5 ml/min; pCRP after storage in 20 mM tris, 280 mM NaCl, 1 mM EDTA with 2, 2.5, 3 or 4 M urea at 4°C, 10 weeks. On the technique in general: SEC sorts molecules by how far they enter the pores of the column.

Test [2] concerns the target T2, C-reactive protein purified from human serum of patients with raised CRP levels (>100 mg/L) (human (endogenous in patient serum)), P02741.
T2 chain: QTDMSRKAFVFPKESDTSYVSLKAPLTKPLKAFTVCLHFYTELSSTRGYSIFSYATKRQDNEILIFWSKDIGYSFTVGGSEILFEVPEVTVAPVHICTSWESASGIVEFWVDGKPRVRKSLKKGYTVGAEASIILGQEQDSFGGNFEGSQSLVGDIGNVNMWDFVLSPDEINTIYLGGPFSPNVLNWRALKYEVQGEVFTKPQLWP
The test is described as follows: SEC; HiLoad 16/60 Superdex 200 pg, elution with buffer A (5 mM CaCl2), 0.5 ml/min; serum CRP first purified by PCho affinity chromatography and eluted with EDTA.

Test [3] addresses T3, Commercially sourced native C-reactive protein (Binding Site) (human), P02741.
T3 chain: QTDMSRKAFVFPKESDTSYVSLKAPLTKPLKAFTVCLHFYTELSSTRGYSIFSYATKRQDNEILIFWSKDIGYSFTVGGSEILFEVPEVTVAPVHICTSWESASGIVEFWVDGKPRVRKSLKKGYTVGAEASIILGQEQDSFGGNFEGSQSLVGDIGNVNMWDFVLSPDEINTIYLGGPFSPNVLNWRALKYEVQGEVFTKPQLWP
The test is described as follows: SEC; size exclusion FPLC (recalibrated after a change of column), 0.5 ml/min; 500 μg and 100 μg of PCho affinity purified CRP loaded; fractions at the mCRP position tested by ELISA.

Consider three molecules from paper PMC7010908.

The term stoichiometry N denotes the number of molecules, sites or subunits per partner or assembly.

B1: Native pentameric human C-reactive protein (Scripps), P02741 19-224 (natural protein)
chain: QTDMSRKAFVFPKESDTSYVSLKAPLTKPLKAFTVCLHFYTELSSTRGYSIFSYATKRQDNEILIFWSKDIGYSFTVGGSEILFEVPEVTVAPVHICTSWESASGIVEFWVDGKPRVRKSLKKGYTVGAEASIILGQEQDSFGGNFEGSQSLVGDIGNVNMWDFVLSPDEINTIYLGGPFSPNVLNWRALKYEVQGEVFTKPQLWP
B1: in test [1], the stoichiometry N was 5.

B2: C-reactive protein purified from human serum of patients with raised CRP levels (>100 mg/L), P02741 19-224 (natural protein)
chain: QTDMSRKAFVFPKESDTSYVSLKAPLTKPLKAFTVCLHFYTELSSTRGYSIFSYATKRQDNEILIFWSKDIGYSFTVGGSEILFEVPEVTVAPVHICTSWESASGIVEFWVDGKPRVRKSLKKGYTVGAEASIILGQEQDSFGGNFEGSQSLVGDIGNVNMWDFVLSPDEINTIYLGGPFSPNVLNWRALKYEVQGEVFTKPQLWP
In test [2], B2 gave a stoichiometry N of 5.

B3: Commercially sourced native C-reactive protein (Binding Site), P02741 19-224 (natural protein)
chain: QTDMSRKAFVFPKESDTSYVSLKAPLTKPLKAFTVCLHFYTELSSTRGYSIFSYATKRQDNEILIFWSKDIGYSFTVGGSEILFEVPEVTVAPVHICTSWESASGIVEFWVDGKPRVRKSLKKGYTVGAEASIILGQEQDSFGGNFEGSQSLVGDIGNVNMWDFVLSPDEINTIYLGGPFSPNVLNWRALKYEVQGEVFTKPQLWP
Regarding B3, the stoichiometry N in test [3] amounted to 5.
